Key:
[1] = substrate: CCCCC[C@H](O)/C=C/[C@H]1[C@H](O)CC(=O)[C@@H]1C/C=C\CCCC(=O)O; test: (§1) TP_TRANSPORTER: uptake in OAT4-expressing S2 cells; assay type: functional, cell-based
[2] = substrate: CCCCC[C@H](O)/C=C/[C@@H]1[C@@H](C/C=C\CCCC(=O)O)[C@@H](O)C[C@H]1O; test: as §1; assay type: functional, cell-based
[3] = substrate: CCCCC[C@H](O)/C=C/[C@H]1[C@H](O)CC(=O)[C@@H]1C/C=C\CCCC(=O)O; test: (§2) TP_TRANSPORTER: uptake in OCT2-expressing S2 cells; assay type: functional, cell-based
[4] = substrate: CCCCC[C@H](O)/C=C/[C@@H]1[C@@H](C/C=C\CCCC(=O)O)[C@@H](O)C[C@H]1O; test: as §2; assay type: functional, cell-based
[5] = substrate: CCCCC[C@H](O)/C=C/[C@H]1[C@H](O)CC(=O)[C@@H]1C/C=C\CCCC(=O)O; test: (§3) TP_TRANSPORTER: uptake in OCT1-expressing S2 cells; assay type: functional, cell-based
[6] = substrate: CCCCC[C@H](O)/C=C/[C@@H]1[C@@H](C/C=C\CCCC(=O)O)[C@@H](O)C[C@H]1O; test: as §3; assay type: functional, cell-based
[7] = substrate: CCCCC[C@H](O)/C=C/[C@@H]1[C@@H](C/C=C\CCCC(=O)O)[C@@H](O)C[C@H]1O; test: TP_TRANSPORTER: uptake in OAT1-expressing S2 cells; assay type: functional, cell-based
[8] = substrate: CCCCC[C@H](O)/C=C/[C@H]1[C@H](O)CC(=O)[C@@H]1C/C=C\CCCC(=O)O; test: cells, lysate or membranes named
[9] = substrate: CCCCC[C@H](O)/C=C/[C@H]1[C@H](O)CC(=O)[C@@H]1C/C=C\CCCC(=O)O; test: (§4) TP_TRANSPORTER: uptake in OAT2-expressing S2 cells; assay type: functional, cell-based
[10] = substrate: CCCCC[C@H](O)/C=C/[C@@H]1[C@@H](C/C=C\CCCC(=O)O)[C@@H](O)C[C@H]1O; test: as §4; assay type: functional, cell-based
[11] = substrate: CCCCC[C@H](O)/C=C/[C@H]1[C@H](O)CC(=O)[C@@H]1C/C=C\CCCC(=O)O; test: (§5) TP_TRANSPORTER: uptake in OAT3-expressing S2 cells; assay type: functional, cell-based
[12] = substrate: CCCCC[C@H](O)/C=C/[C@@H]1[C@@H](C/C=C\CCCC(=O)O)[C@@H](O)C[C@H]1O; test: as §5; assay type: functional, cell-based

B1: Solute carrier family 22 member 11 (Homo sapiens) (protein)
chain: MAFSKLLEQAGGVGLFQTLQVLTFILPCLMIPSQMLLENFSAAIPGHRCWTHMLDNGSAVSTNMTPKALLTISIPPGPNQGPHQCRRFRQPQWQLLDPNATATSWSEADTEPCVDGWVYDRSVFTSTIVAKWDLVCSSQGLKPLSQSIFMSGILVGSFIWGLLSYRFGRKPMLSWCCLQLAVAGTSTIFAPTFVIYCGLRFVAAFGMAGIFLSSLTLMVEWTTTSRRAVTMTVVGCAFSAGQAALGGLAFALRDWRTLQLAASVPFFAISLISWWLPESARWLIIKGKPDQALQELRKVARINGHKEAKNLTIEVLMSSVKEEVASAKEPRSVLDLFCVPVLRWRSCAMLVVNFSLLISYYGLVFDLQSLGRDIFLLQALFGAVDFLGRATTALLLSFLGRRTIQAGSQAMAGLAILANMLVPQDLQTLRVVFAVLGKGCFGISLTCLTIYKAELFPTPVRMTADGILHTVGRLGAMMGPLILMSRQALPLLPPLLYGVISIASSLVVLFFLPETQGLPLPDTIQDLESQKSTAAQGNRQEAVTVESTSL
B1 was tested. Which Km [1] did it give?
The Km was 0.154 µM.

What about the Km [2] of the same protein?
The Km was 0.692 µM.

B2: Solute carrier family 22 member 2 (Homo sapiens) (protein)
chain: MPTTVDDVLEHGGEFHFFQKQMFFLLALLSATFAPIYVGIVFLGFTPDHRCRSPGVAELSLRCGWSPAEELNYTVPGPGPAGEASPRQCRRYEVDWNQSTFDCVDPLASLDTNRSRLPLGPCRDGWVYETPGSSIVTEFNLVCANSWMLDLFQSSVNVGFFIGSMSIGYIADRFGRKLCLLTTVLINAAAGVLMAISPTYTWMLIFRLIQGLVSKAGWLIGYILITEFVGRRYRRTVGIFYQVAYTVGLLVLAGVAYALPHWRWLQFTVSLPNFFFLLYYWCIPESPRWLISQNKNAEAMRIIKHIAKKNGKSLPASLQRLRLEEETGKKLNPSFLDLVRTPQIRKHTMILMYNWFTSSVLYQGLIMHMGLAGDNIYLDFFYSALVEFPAAFMIILTIDRIGRRYPWAASNMVAGAACLASVFIPGDLQWLKIIISCLGRMGITMAYEIVCLVNAELYPTFIRNLGVHICSSMCDIGGIITPFLVYRLTNIWLELPLMVFGVLGLVAGGLVLLLPETKGKALPETIEEAENMQRPRKNKEKMIYLQVQKLDIPLN
For B2, which Km [3] is on record?
Its Km is 0.0289 µM.

And the Km [4]?
The Km was 0.334 µM.

B3: Solute carrier family 22 member 1 (Homo sapiens) (protein)
chain: MPTVDDILEQVGESGWFQKQAFLILCLLSAAFAPICVGIVFLGFTPDHHCQSPGVAELSQRCGWSPAEELNYTVPGLGPAGEAFLGQCRRYEVDWNQSALSCVDPLASLATNRSHLPLGPCQDGWVYDTPGSSIVTEFNLVCADSWKLDLFQSCLNAGFLFGSLGVGYFADRFGRKLCLLGTVLVNAVSGVLMAFSPNYMSMLLFRLLQGLVSKGNWMAGYTLITEFVGSGSRRTVAIMYQMAFTVGLVALTGLAYALPHWRWLQLAVSLPTFLFLLYYWCVPESPRWLLSQKRNTEAIKIMDHIAQKNGKLPPADLKMLSLEEDVTEKLSPSFADLFRTPRLRKRTFILMYLWFTDSVLYQGLILHMGATSGNLYLDFLYSALVEIPGAFIALITIDRVGRIYPMAMSNLLAGAACLVMIFISPDLHWLNIIIMCVGRMGITIAIQMICLVNAELYPTFVRNLGVMVCSSLCDIGGIITPFIVFRLREVWQALPLILFAVLGLLAAGVTLLLPETKGVALPETMKDAENLGRKAKPKENTIYLKVQTSEPSGT
With B3 as the protein, how does the Km [5] read?
Its Km is 0.657 µM.

And the Km [6]?
Its Km is 0.477 µM.

B4: Solute carrier family 22 member 6 (Homo sapiens) (protein)
chain: MAFNDLLQQVGGVGRFQQIQVTLVVLPLLLMASHNTLQNFTAAIPTHHCRPPADANLSKNGGLEVWLPRDRQGQPESCLRFTSPQWGLPFLNGTEANGTGATEPCTDGWIYDNSTFPSTIVTEWDLVCSHRALRQLAQSLYMVGVLLGAMVFGYLADRLGRRKVLILNYLQTAVSGTCAAFAPNFPIYCAFRLLSGMALAGISLNCMTLNVEWMPIHTRACVGTLIGYVYSLGQFLLAGVAYAVPHWRHLQLLVSAPFFAFFIYSWFFIESARWHSSSGRLDLTLRALQRVARINGKREEGAKLSMEVLRASLQKELTMGKGQASAMELLRCPTLRHLFLCLSMLWFATSFAYYGLVMDLQGFGVSIYLIQVIFGAVDLPAKLVGFLVINSLGRRPAQMAALLLAGICILLNGVIPQDQSIVRTSLAVLGKGCLAASFNCIFLYTGELYPTMIRQTGMGMGSTMARVGSIVSPLVSMTAELYPSMPLFIYGAVPVAASAVTVLLPETLGQPLPDTVQDLESRWAPTQKEAGIYPRKGKQTRQQQEHQKYMVPLQASAQEKNGL
What does the source list for B4?
Km [7]: 0.575 µM; Km [8]: 0.97 µM

B5: Solute carrier family 22 member 7 (Homo sapiens) (protein)
chain: MGFEELLEQVGGFGPFQLRNVALLALPRVLLPLHFLLPIFLAAVPAHRCALPGAPANFSHQDVWLEAHLPREPDGTLSSCLRFAYPQALPNTTLGEERQSRGELEDEPATVPCSQGWEYDHSEFSSTIATESQWDLVCEQKGLNRAASTFFFAGVLVGAVAFGYLSDRFGRRRLLLVAYVSTLVLGLASAASVSYVMFAITRTLTGSALAGFTIIVMPLELEWLDVEHRTVAGVLSSTFWTGGVMLLALVGYLIRDWRWLLLAVTLPCAPGILSLWWVPESARWLLTQGHVKEAHRYLLHCARLNGRPVCEDSFSQEAVSKVAAGERVVRRPSYLDLFRTPRLRHISLCCVVVWFGVNFSYYGLSLDVSGLGLNVYQTQLLFGAVELPSKLLVYLSVRYAGRRLTQAGTLLGTALAFGTRLLVSSDMKSWSTVLAVMGKAFSEAAFTTAYLFTSELYPTVLRQTGMGLTALVGRLGGSLAPLAALLDGVWLSLPKLTYGGIALLAAGTALLLPETRQAQLPETIQDVERKSAPTSLQEEEMPMKQVQN
For B5, which Km [9] is on record?
The Km was 0.713 µM.

What about the Km [10] of the same protein?
The Km was 0.425 µM.

B6: Organic anion transporter 3 (Homo sapiens) (protein)
chain: MTFSEILDRVGSMGHFQFLHVAILGLPILNMANHNLLQIFTAATPVHHCRPPHNASTGPWVLPMGPNGKPERCLRFVHPPNASLPNDTQRAMEPCLDGWVYNSTKDSIVTEWDLVCNSNKLKEMAQSIFMAGILIGGLVLGDLSDRFGRRPILTCSYLLLAASGSGAAFSPTFPIYMVFRFLCGFGISGITLSTVILNVEWVPTRMRAIMSTALGYCYTFGQFILPGLAYAIPQWRWLQLTVSIPFFVFFLSSWWTPESIRWLVLSGKSSKALKILRRVAVFNGKKEEGERLSLEELKLNLQKEISLAKAKYTASDLFRIPMLRRMTFCLSLAWFATGFAYYSLAMGVEEFGVNLYILQIIFGGVDVPAKFITILSLSYLGRHTTQAAALLLAGGAILALTFVPLDLQTVRTVLAVFGKGCLSSSFSCLFLYTSELYPTVIRQTGMGVSNLWTRVGSMVSPLVKITGEVQPFIPNIIYGITALLGGSAALFLPETLNQPLPETIEDLENWSLRAKKPKQEPEVEKASQRIPLQPHGPGLGSS
With B6 as the protein, how does the Km [11] read?
The Km was 0.345 µM.

What about the Km [12] of the same protein?
The Km was 1.09 µM.

Source: ChEMBL document CHEMBL2073850, “Human organic anion transporters and human organic cation transporters mediate renal transport of prostaglandins” (J Pharmacol Exp Ther, 2002)
